# From patent US20210363254A1 (Novartis, published 2021)
# Positions count from the first letter of the chain named.
# B1: BAP049-hum10 (antibody, human IgG4 S228P, kappa)
# heavy: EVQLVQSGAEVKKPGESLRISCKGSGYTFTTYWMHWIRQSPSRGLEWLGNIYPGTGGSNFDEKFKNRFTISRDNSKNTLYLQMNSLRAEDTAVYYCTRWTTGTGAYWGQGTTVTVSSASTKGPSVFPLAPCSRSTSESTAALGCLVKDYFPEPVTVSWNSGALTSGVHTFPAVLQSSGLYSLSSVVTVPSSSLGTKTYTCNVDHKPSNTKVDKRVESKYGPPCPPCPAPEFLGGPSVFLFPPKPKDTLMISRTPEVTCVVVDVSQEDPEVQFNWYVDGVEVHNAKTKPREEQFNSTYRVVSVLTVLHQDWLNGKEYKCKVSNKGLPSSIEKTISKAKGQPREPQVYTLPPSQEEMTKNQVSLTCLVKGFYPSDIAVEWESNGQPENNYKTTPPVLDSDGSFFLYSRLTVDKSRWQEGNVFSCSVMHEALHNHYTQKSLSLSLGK
# light: EIVLTQSPATLSLSPGERATLSCKSSQSLLDSGNQKNFLTWYQQKPGQAPRLLIYWASTRESGVPSRFSGSGSGTDFTFTISSLEAEDAATYYCQNDYSYPYTFGQGTKVEIKRTVAAPSVFIFPPSDEQLKSGTASVVCLLNNFYPREAKVQWKVDNALQSGNSQESVTEQDSKDSTYSLSSTLTLSKADYEKHKVYACEVTHQGLSSPVTKSFNRGEC
# notes: also called humanized BAP049 clone hum10
# B2: BAP049-hum15 (antibody, human IgG4 S228P, kappa)
# heavy chain: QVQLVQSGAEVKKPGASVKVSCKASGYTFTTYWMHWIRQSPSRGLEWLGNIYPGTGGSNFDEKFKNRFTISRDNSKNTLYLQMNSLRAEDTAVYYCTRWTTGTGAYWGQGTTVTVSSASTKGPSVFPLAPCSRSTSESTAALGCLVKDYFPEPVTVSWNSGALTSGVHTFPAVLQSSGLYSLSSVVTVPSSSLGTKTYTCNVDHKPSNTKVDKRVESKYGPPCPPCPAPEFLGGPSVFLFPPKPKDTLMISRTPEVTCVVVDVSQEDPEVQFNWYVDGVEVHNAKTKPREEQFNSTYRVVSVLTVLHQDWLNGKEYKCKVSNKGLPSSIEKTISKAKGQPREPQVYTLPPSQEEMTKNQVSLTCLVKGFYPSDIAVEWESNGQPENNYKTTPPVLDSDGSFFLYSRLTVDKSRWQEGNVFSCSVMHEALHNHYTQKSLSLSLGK
# light chain: B1 light with A9D, T10F, L11Q, L13V, S14T, G16K, R18K, A19V, L21I, S22T
# notes: also called clone 15
# B3: BAP049-hum11 (antibody, human IgG4 S228P, kappa)
# heavy: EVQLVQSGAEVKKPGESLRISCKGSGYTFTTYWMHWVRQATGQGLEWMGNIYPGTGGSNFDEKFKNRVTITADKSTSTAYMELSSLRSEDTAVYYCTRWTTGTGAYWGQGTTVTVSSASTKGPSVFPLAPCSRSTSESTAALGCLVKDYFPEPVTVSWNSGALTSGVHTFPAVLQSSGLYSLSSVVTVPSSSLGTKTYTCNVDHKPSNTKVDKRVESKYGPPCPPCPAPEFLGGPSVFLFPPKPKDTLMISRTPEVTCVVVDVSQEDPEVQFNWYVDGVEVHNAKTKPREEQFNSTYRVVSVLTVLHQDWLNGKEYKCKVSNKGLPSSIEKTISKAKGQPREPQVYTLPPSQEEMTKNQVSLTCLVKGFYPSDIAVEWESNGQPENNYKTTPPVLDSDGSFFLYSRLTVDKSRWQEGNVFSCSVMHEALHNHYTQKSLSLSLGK
# light: B1 light
# notes: also called humanized BAP049 clone hum11
# B4: BAP049-hum05 (antibody, human IgG4 S228P, kappa, V domains shown)
# VH: EVQLVQSGAEVKKPGESLRISCKGSGYTFTTYWMHWVRQATGQGLEWMGNIYPGTGGSNFDEKFKNRVTITADKSTSTAYMELSSLRSEDTAVYYCTRWTTGTGAYWGQGTTVTVSS
# VL: EIVLTQSPATLSLSPGERATLSCKSSQSLLDSGNQKNFLTWYQQKPGKAPKLLIYWASTRESGVPSRFSGSGSGTDFTFTISSLQPEDIATYYCQNDYSYPYTFGQGTKVEIKR
# notes: also called humanized BAP049 clone hum05
# B5: BAP049-hum14 (antibody, human IgG4 S228P, kappa)
# heavy chain: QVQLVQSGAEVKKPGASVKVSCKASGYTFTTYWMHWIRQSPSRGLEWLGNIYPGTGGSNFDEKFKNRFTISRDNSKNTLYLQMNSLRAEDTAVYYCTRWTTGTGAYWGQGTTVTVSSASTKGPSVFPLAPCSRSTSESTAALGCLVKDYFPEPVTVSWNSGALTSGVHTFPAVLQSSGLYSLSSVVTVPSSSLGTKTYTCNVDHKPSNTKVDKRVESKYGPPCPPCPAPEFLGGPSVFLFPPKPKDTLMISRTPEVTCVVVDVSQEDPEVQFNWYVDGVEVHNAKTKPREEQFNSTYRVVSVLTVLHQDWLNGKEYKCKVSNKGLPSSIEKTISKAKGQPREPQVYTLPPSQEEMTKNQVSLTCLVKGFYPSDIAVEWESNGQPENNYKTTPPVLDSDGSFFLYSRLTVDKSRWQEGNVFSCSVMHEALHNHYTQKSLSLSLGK
# light chain: B1 light
# notes: also called clone 14
# B6: BAP049-hum06 (antibody, human IgG4 S228P, kappa)
# heavy chain: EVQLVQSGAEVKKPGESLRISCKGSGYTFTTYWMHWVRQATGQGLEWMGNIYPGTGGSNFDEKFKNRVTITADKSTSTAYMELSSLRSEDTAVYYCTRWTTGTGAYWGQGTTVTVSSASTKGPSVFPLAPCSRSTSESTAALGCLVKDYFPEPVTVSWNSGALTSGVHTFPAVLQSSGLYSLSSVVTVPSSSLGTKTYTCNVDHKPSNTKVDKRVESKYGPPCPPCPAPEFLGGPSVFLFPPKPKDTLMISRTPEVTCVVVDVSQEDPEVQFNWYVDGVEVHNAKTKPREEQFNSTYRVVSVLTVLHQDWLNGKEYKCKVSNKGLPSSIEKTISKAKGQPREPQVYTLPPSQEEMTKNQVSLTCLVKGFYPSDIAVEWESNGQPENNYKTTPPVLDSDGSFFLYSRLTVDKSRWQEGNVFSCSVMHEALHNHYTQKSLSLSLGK
# light chain: DIVMTQTPLSLPVTPGEPASISCKSSQSLLDSGNQKNFLTWYQQKPGQAPRLLIYWASTRESGVPSRFSGSGSGTDFTFTISSLEAEDAATYYCQNDYSYPYTFGQGTKVEIKRTVAAPSVFIFPPSDEQLKSGTASVVCLLNNFYPREAKVQWKVDNALQSGNSQESVTEQDSKDSTYSLSSTLTLSKADYEKHKVYACEVTHQGLSSPVTKSFNRGEC
# notes: also called clone 6
# B7: BAP049-hum01 (antibody, human IgG4 S228P, kappa, V domains shown)
# VH: B4 VH
# VL: B4 VL with K48Q, K51R, D76E, F79L, E87D, I89F
# notes: Humanized anti-PD-1 mAb; also called humanized BAP049 clone hum01
# B8: BAP049-hum09 (antibody, human IgG4 S228P, kappa)
# heavy: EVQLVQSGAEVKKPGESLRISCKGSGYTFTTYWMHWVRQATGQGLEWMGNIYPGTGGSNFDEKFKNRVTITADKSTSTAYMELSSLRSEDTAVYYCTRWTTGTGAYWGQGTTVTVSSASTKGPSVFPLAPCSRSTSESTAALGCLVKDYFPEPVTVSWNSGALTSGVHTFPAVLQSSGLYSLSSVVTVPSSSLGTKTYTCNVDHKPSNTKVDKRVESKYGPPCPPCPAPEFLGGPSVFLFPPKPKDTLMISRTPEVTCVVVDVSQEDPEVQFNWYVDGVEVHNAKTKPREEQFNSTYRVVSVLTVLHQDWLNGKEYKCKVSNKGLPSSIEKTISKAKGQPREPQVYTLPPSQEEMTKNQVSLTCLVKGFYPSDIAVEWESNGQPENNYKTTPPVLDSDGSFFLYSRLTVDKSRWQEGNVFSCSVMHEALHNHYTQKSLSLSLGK
# light: B1 light with A9D, T10F, L11Q, L13V, S14T, G16K, R18K, A19V, L21I, S22T
# notes: also called humanized BAP049 clone hum09
# B9: BAP049-hum07 (antibody, human IgG4 S228P, kappa)
# heavy chain: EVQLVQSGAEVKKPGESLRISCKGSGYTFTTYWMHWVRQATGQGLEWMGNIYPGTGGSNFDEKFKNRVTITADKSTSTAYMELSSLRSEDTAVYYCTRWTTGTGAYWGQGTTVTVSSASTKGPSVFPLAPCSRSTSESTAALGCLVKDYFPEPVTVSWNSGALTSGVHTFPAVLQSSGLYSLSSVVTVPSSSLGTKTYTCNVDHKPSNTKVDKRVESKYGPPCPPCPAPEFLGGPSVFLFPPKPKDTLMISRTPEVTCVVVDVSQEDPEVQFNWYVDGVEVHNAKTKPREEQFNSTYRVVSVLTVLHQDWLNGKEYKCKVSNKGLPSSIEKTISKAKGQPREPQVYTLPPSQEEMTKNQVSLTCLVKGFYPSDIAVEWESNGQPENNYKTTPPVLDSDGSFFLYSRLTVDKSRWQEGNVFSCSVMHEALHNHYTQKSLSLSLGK
# light chain: B1 light with Q48K, R51K
# notes: also called clone 7
# B10: BAP049-hum08 (antibody, human IgG4 S228P, kappa)
# heavy: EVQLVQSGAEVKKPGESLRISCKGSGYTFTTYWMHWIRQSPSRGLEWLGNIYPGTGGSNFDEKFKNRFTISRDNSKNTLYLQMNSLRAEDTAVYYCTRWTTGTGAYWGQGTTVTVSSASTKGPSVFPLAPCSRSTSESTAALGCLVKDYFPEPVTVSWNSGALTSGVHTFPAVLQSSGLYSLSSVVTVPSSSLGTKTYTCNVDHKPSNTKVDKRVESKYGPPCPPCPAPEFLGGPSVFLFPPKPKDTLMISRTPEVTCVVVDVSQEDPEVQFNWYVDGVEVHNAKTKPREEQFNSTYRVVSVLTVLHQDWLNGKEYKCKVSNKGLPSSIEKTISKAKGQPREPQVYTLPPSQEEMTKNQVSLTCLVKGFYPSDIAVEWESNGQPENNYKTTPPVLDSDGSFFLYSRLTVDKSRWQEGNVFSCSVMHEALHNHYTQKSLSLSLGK
# light: B1 light with A9D, T10F, L11Q, L13V, S14T, G16K, R18K, A19V, L21I, S22T
# notes: also called humanized BAP049 clone hum08
# B11: BAP049-hum04 (antibody, human IgG4 S228P, kappa, V domains shown)
# VH: EVQLVQSGAEVKKPGESLRISCKGSGYTFTTYWMHWIRQSPSRGLEWLGNIYPGTGGSNFDEKFKNRFTISRDNSKNTLYLQMNSLRAEDTAVYYCTRWTTGTGAYWGQGTTVTVSS
# VL: B4 VL
# notes: also called clone 4
# B12: BAP049-hum16 (antibody, human IgG4 S228P, kappa, V domains shown)
# VH: B11 VH with I37V, S40A, S42G, R43Q, L48M
# VL: EIVLTQSPDFQSVTPKEKVTITCKSSQSLLDSGNQKNFLTWYQQKPGQAPRLLIYWASTRESGVPSRFSGSGSGTDFTFTISSLEAEDAATYYCQNDYSYPYTFGQGTKVEIKR
# notes: also called clone 16
# B13: BAP049-hum02 (antibody, human IgG4 S228P, kappa, V domains shown)
# VH: B4 VH
# VL: DIQMTQSPSSLSASVGDRVTITCKSSQSLLDSGNQKNFLTWYQQKPGQAPRLLIYWASTRESGIPPRFSGSGYGTDFTLTINNIESEDAAYYFCQNDYSYPYTFGQGTKVEIKR
# notes: also called clone 2
# B14: BAP049-hum12 (antibody, human IgG4 S228P, kappa, V domains shown)
# VH: B4 VH
# VL: DIQMTQSPSSLSASVGDRVTITCKSSQSLLDSGNQKNFLTWYLQKPGQSPQLLIYWASTRESGVPSRFSGSGSGTDFTFTISSLEAEDAATYYCQNDYSYPYTFGQGTKVEIKR
# notes: also called clone 12
# B15: BAP049-hum03 (antibody, human IgG4 S228P, kappa, V domains shown)
# VH: B11 VH
# VL: B13 VL
# notes: also called clone 3
# B16: BAP049-hum13 (antibody, human IgG4 S228P, kappa)
# heavy chain: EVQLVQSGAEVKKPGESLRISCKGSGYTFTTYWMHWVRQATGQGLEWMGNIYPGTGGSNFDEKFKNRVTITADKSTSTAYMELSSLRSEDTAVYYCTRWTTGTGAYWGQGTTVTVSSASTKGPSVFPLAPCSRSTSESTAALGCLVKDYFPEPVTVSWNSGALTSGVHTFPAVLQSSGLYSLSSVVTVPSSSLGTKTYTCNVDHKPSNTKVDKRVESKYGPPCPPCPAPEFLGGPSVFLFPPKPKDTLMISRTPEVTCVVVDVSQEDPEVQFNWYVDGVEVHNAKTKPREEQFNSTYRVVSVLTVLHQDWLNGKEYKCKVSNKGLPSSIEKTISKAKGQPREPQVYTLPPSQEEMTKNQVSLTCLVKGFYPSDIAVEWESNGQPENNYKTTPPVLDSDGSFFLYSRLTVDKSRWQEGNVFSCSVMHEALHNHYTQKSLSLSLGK
# light chain: B6 light chain with I2V, T7S, P15L, E17Q, Q48K, R51K
# notes: also called clone 13
# B17: Chi mAb (Tyr) (antibody, human IgG4 S228P, kappa, V domains shown)
# VH: QVQLQQSGSELVRPGASVKLSCKASGYTFTTYWMHWVRQRPGQGLEWIGNIYPGTGGSNFDEKFKNRTSLTVDTSSTTAYMHLASLTSEDSAVYYCTRWTTGTGAYWGQGTTVTVSS
# VL: DIVMTQSPSSLTVTAGEKVTMSCKSSQSLLDSGNQKNFLTWYQQKPGQPPKLLIFWASTRESGVPDRFTGSGSVTDFTLTISSVQAEDLAVYYCQNDYSYPYTFGQGTKVEIKR
# notes: also called BAP049-chi-Y; Chi (Tyr)
# B18: Mu mAb (antibody, V domains shown)
# VH: B17 VH with T112L, S117A
# VL: DIVMTQSPSSLTVTAGEKVTMSCKSSQSLLDSGNQKNFLTWYQQKPGQPPKLLIFWASTRESGVPDRFTGSGSVTDFTLTISSVQAEDLAVYYCQNDYSYPCTFGGGTKLEIK
# notes: also called murine mAb BAP049; murine anti-PD-1 mAb BAP049
# Target: T1, Programmed Death 1 (PD-1) (UniProt Q15116 25-288, limits assumed)
# T1 sequence (Q15116 25-288 limits assumed): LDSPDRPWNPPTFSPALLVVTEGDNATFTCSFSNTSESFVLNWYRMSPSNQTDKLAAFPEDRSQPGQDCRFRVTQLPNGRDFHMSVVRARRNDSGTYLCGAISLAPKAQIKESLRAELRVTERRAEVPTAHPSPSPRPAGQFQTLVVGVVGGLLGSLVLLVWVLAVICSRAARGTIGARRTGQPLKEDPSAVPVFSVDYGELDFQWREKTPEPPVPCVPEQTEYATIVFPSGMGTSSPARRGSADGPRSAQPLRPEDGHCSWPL
# Assay: rank of the clone among the humanized BAP049 clones by FACS data
row,Binder,"Ranking, FACS data"
1,B1,7
2,B2,6
3,B3,6
4,B4,5
5,B5,16
6,B6,1
7,B7,2
8,B8,7
9,B9,4
10,B10,7
11,B11,14
12,B12,15
13,B13,6
14,B14,3
15,B15,7
16,B16,6

# Target: T1, Programmed Death 1 (PD-1)
# Assay: FACS, blocking of ligand-Ig binding to PD-1, MFI of bound ligand against mAb concentration; legend paragraph 53 names 'PD-LI-Ig and PD-L2-Ig' for FIG. 8A; cells not named
row,Binder,IC50 (read off the curve) [µg/mL]
1,B17,~0.9
2,B18,~0.7
3,B1,~1
4,B4,~1
5,B7,~1

# Target: T1, Programmed Death 1 (PD-1)
# Assay: rank of the clone by competition binding against labelled murine mAb BAP049, second experiment (legends paragraph 52); footnote: empty boxes means worse than 4
row,Binder,"Competition Binding, 2nd exp. (rank)"
1,B1,> 4
2,B2,15
3,B3,> 4
4,B4,> 4
5,B5,15
6,B6,3
7,B7,2
8,B8,4
9,B9,> 4
10,B10,4
11,B11,15
12,B12,15
13,B13,2
14,B14,16
15,B15,14
16,B16,1

# Target: T1, Programmed Death 1 (PD-1)
# Assay: rank of the clone by competition binding against labelled murine mAb BAP049, first experiment (legends paragraph 52)
row,Binder,"Competition Binding, 1st exp. (rank)"
1,B1,6
2,B2,7
3,B3,4
4,B4,5
5,B5,7
6,B6,7
7,B7,7
8,B8,2
9,B9,7
10,B10,7
11,B11,15
12,B12,16
13,B13,3
14,B14,8
15,B15,8
16,B16,1
